Reference: article doi:10.1101/2024.06.21.600001 (bioRxiv, 2024)

Legend:
Assay in all cases: immunostaining of cells or tissue
Settings in all cases: one partner purified
[1] = target: T1, Bundibugyo ebolavirus glycoprotein (BDBV GP), full-length transmembrane (Bundibugyo ebolavirus (YP_003815435.1), UniProt B8XCN0)
T1 construct: source: MDCK SIAT-1 cells expressing BDBV GP, on the cell surface

[2] = target: Tai Forest ebolavirus glycoprotein (TAFV GP) (Tai Forest ebolavirus (TAFV), UniProt Q66810)
[3] = target: Reston ebolavirus glycoprotein (RESTV GP) (Reston ebolavirus, isolate ; …, UniProt Q66799)
[4] = target: T2, Zaire ebolavirus glycoprotein (EBOV GP), full-length transmembrane, Mayinga (Zaire ebolavirus (EBOV), Mayinga, UniProt Q05320)
T2 construct: source: MDCK SIAT-1 cells expressing EBOV GP, on the cell surface

[5] = target: T3, Sudan ebolavirus glycoprotein (SUDV GP), full-length transmembrane (Sudan ebolavirus (SUDV), UniProt Q7T9D9)
T3 construct: source: MDCK SIAT-1 cells expressing SUDV GP, on the cell surface

Measured: binding result

B1: mAb 11883, recombinant rabbit IgG (antibody, V domains shown)
VH: QEQLVESGGGLVQPEGSLTLTCTASGFSFSSNCWRCWVRQAPGKGLEWIACVCAGRSGGTTYYASWAKGRFTISKTSSPTVTLQMTSLTAADTATYFCARAGYDDYGDASFFNLWGPGTLVTVS
VL: AVVLTQTASPVSTPVGGTVTIKCQASQNIYSNLAWYQQKPGQPPKLLIYSASTLASGVPSRFKGSGSGTEYTLTISDLECADAATYYCQRYYYLSGSADNTFGGGTEVVVK
notes: source: HEK293F, transfected, purified (Protein A); copies: 2 + 2
binds: [1] | [2] | [3] | [4] | [5]

B2: mAb 11886, recombinant rabbit IgG (antibody, V domains shown)
VH: QSVEESGGRLVTPGTPLTLTCIVSGFSLSNYYMSWVRQVPGKGLEWIGVIGWSGTSSYASWAKGRFTISKTASTTVDLKITSPTTEDTATYFCARVLYIGGGFNYYDAFDPWGPGTLVTVS
VL: DVVMTQTPASVSEPVGGTVTIKCQASQSIGSNLAWYQQKPGQPPKLLIYAASTLASGVPSRFKGSGSGTEFTLTISDLECADAATYYCQCTYYDSSYVYNNFGGGTEVVVK
notes: as for B1
binds: [1] | [2] | [3] | [4] | [5]
